{"source": "the DeepSol protein solubility set"}
{"experiment": "soluble on expression in E. coli; label from the status in PepcDB or PDB records"}
{"sequence": "MSDKRRYFGTDGVRGKVGQYPITPDFVLKLGWAAGRVLAKQGTRKVIIGKDTRISGYMLESALEAGLAAAGLKATFTGPMPTPAVAYLTQTFRAEAGIVISASHNPYYDNGIKFFSYEGTKLPDDIELAIEAELDKDIECVESAELGKASRMVDAAGRYIEFCKSTFPSKLSLSGLKLVVDCANGATYHIAPNVFRELGAEVIAMGVEPNGLNINDQVGATDVRALQKRVVEEHAHLGLAFDGDGDRIIMVDHLGNKVDGDQIAYIIARDALRRGELKGGVVGTLMTNLGMENGLKQLGIPFVRAAVGDRYVMEKLLEKGWKIGAENSGHVILLDKVTTGDAIVAGLQVLASVVGSEMTLHELAKGMTLYPQVLENVRFAGDNNPLEADAVKAAVSEVEAELGSKGRVLLRKSGTEPLIRVMVEGEDETLVKQSALKIAQAVKDNC", "soluble on expression in E. coli": "not soluble"}
{"sequence": "MTATTNESQEIAMTATTADEIPASTEQNLRIVQRVIFPANRDLDTLPLYVDPDTNKLHTSGGGADVQAIGMARKLHPEDILNRGSVQVRRGERLSFGSYFNAFPASYWRKWTIATKTVLHIETEGEGTVIVYRSNARGASQRVDSILVEGPSTNEFELTLAPFGDGGWYWFDLIAGGDGMTLKSAHWAVPDEGRPQGRVTLGVTTFNRADYCLETIKSIDGDAGLREILAELIIVDQGNKKVADQAGFDAVAESMGDQLRIINQGNLGGSGGFARNMYEMVVSDKSDYVMLLDDDIELETEGVMRAVAFADLCRKPTIVGGHMFDMYNKSVLHAYSEVVNFYRFLWGPVEGLGNHDFSTAGLRSTPQLHRRWDADYNGWWMCLIPKTVVETIGLSLPVFIKWDDAEYSLRGRAAGFPTVTLPGAAVWHVSWADKDDSVDWQAYYHERNRLIATLLHSPFPKGGRILRESLNTDVKHLVSMQYYPEQARVMALRDVLAGPDNLHKQLPTTMPKLRAMREEFPDSQVKTDPAAFPEVFRKRPPKKPQSFKQPGALGLLPWAVKTVLKQTLAPVRGTAKAAPEAHVAHQDGKWWSLAHLDSAVVSNADGTGASWHLRNPKMARQLVVESAKLHAQLFSNWETLRAQYREALPEITSMESWRETFEASEPSK", "soluble on expression in E. coli": "not soluble"}
{"sequence": "MNVNGENNEKIDEHHLESSLAGVPTLPVSPLDHAKDLSQTNPNAQIGDLVTQTANLIAIKKQLLEDIAFNQHIQSMQVRAIQSFPQNNQVAPPFQQFDPRRRGLARMQKPESYKTVICQAWLESKTCSFADNCRFAHGEEELRPTFVEPLQNNKYKTKLCDKYTTTGLCPYGKRCLFIHPDHGPNAYIRADKLLEVSQRHALADIRDQMEQHIMTNGRIAAPPLSAIQHPLEMFARPSTPDEPAAKLPLGPTPVSTRGPRYELPTKELHDAEGAMTYPPSRWPLDPSMFALDAWNMAHRPASPLDSMVLGSAPNAGSFGMLGKQNTPGGVSGYSSAGSTPSQDLSSSSLNAASAAAAAAYFANSAVAQSLLMKSVATDPMMSCNGPFSPMPGFDQLAENMTKHLNLW", "soluble on expression in E. coli": "not soluble"}
{"sequence": "MKKSKRKNAQAQEAQETEVLVQEEAEELPEFPEGEPDPDLEDPDLTLEDDLLDLPEEGEGLDLEEEEEDLPIPKISTSDPVRQYLHEIGQVPLLTLEEEVELARKVEEGMEAIKKLSEITGLDPDLIREVVRAKILGSARVRHIPGLKETLDPKTVEEIDQKLKSLPKEHKRYLHIAREGEAARQHLIEANLRLVVSIAKKYTGRGLSFLDLIQEGNQGLIRAVEKFEYKRRFKFSTYATWWIRQAINRAIADQARTIRIPVHMVETINKLSRTARQLQQELGREPTYEEIAEAMGPGWDAKRVEETLKIAQEPVSLETPIGDEKDSFYGDFIPDEHLPSPVDAATQSLLSEELEKALSKLSEREAMVLKLRKGLIDGREHTLEEVGAFFGVTRERIRQIENKALRKLKYHESRTRKLRDFLD", "soluble on expression in E. coli": "soluble"}
{"sequence": "MKHHHHHHPMVKEYKTITQIAGPLIFVEKTEPVGYNEIVNIKMGDGTVRRGQVLDSSADIVVVQVFEGTGGLDKDCGVIFTGETLKLPASVDLLGRILSGSGEPRDGGPRIVPDQLLDINGAAMNPYARLPPKDFIQTGISTIDGTNTLVRGQKLPIFSASGLPHNEIALQIARQASVPGSESAFAVVFAAMGITNEEAQYFMSDFEKTGALERAVVFLNLADDPAVERIVTPRMALTAAEYLAYEHGMHVLVILTDITNYAEALRQMGAARNEVPGRRGYPGYMYTDLATLYERAGIVKGAKGSVTQIPILSMPGDDITHPIPDLSGYITEGQIVVARELHRKGIYPPINVLPSLSRLMNSGIGAGKTREDHKAVSDQMYAGYAEGRDLRGLVAIVGKEALSERDTKFLEFADLFEDKFVRQGWNENRTIEDTLEIGWQILTHLPENQLGRIDNKYIQKYHPAHRKAK", "soluble on expression in E. coli": "soluble"}
{"sequence": "SDLWVQKMKTYFNRIDFDKDGAITRMDFESMAERFAKESEMKAEHAKVLMDSLTGVWDNFLTAVAGGKGIDETTFINSMKEMVKNPEAKSVVEGPLPLFFRAVDTNEDNNISRDEYGIFFGMLGLDKTMAPASFDAIDTNNDGLLSLEEFVIAGSDFFMNDGDSTNKVFWGPLV", "soluble on expression in E. coli": "soluble"}
{"sequence": "MNNYIDLAKTYGGFTSLDTNYLNHLLASLTDQQKLAFITPPPSVINAYFAEIYQKQSPQAATDYYFNLSKALGLFTDQPSFEEEKPFVRLNLSGKAYGFAYQNDQEVALVFSEKAEPKKPELFFELTQIFPQYMVYEDKGQLKMQAKQFEQGECEDITPDDTLLSKIYRLANGITMLKGFNVEELWALSQTFSGQKYYDFAQREFMIYITQ", "soluble on expression in E. coli": "not soluble"}
{"sequence": "KSIRLAKEKESQADYISTYVEWQYIDKNITQCFDKMTNMKLEVAWKAKKKDTVVQIHNQDFTVDLSTNTATAPQGQTFTVQRLVKA", "soluble on expression in E. coli": "soluble"}
{"sequence": "MGSDKIHHHHHHGDWLNLNPSTSVTTPQAIRTLEEAQIALNGIYRIAASHSYYGDNYLYYADCRGEDVQARVSKGAGKRVSPYYEFNVTADDALNITRVWNQPYSVIHQANSLLERIESGAVVTDDAVALNCIKAEALALRGLALFDLTRLFAMPYTLNNGTSLGVPIEIKTTLPTHQPARNTVAECYQQVIDDMTGALKLSALSADKKNGYLNVWSVKALLSRVYLYMNDNEKALALAKEVMNNGGLYQLFTHDEYPTVWGKDFSSESLFEFYYTLSEPDGGTGGEGAPMVYADNVKDWNNLVLTKAFLDLLGEDPDDVRHSLNRLPEKPEEDILPEGSKGYPKYLNKYPGKTGDNPQDNDICIIRLSEVYLNAAEAAFKLGGAENLKFSLDCLNAIVSRANPVKSVKETELSLERILKERRKELVGEGHAFFDAMRNGLSVSRTGGWHLPSVAAAAVISPSDPRVALPIPQAEIDANPNMVQNPH", "soluble on expression in E. coli": "not soluble"}
{"sequence": "MSLEKQKLIKLIDVAAGRKKADLVLKNAKIVDVFQAKILTGDIAISDGYIAGIGGSYQGVVECNYTGKYVAPGFIEAHIHIESSYVSPEEFSRVFIPRGTTTILADPHEIVNVAGLKGLDYMVNAAKNAKMDIRYMMPPCVPATNFETSGADLYADDMEDALKTGEVDGLAELMNFPGVINADDKMIDEILMAKKYGARIDGHAPQVVGKDLNAYIAAGPANDHECSTLEEAEERLARGMYLLLREGSVTQDLRKLLPIVNTANSRRCLLSGDDVQAKTAINKGHLDNSIRICIDEGLNPITAIQMATLNPAEYCGLNDRGAIAPGRRADMVVFESLEDFAVEETYILGEKLSQGNEYLGEVNYYPIDSVESSMHVKDFTREKLQLHLNSDKVRAIGVVPGEVLTTEEHVTVKRDGDGNFVYNDQEDVTKIVVVERHHNTGNVNVNLLSGYGIKAGAIAISIGHDSHNIIATGTNDDDIFMAVNELIKQEGGAVVVKDEKVISRMELKIAGLMCNLPAEKMIAQQDALDEAVHEELGVPDNVNPVMTLSFMPLAVIPKLKITDKGLVDVEKNAFVSNELDEGHHHHHH", "soluble on expression in E. coli": "soluble"}
{"sequence": "MFTAGSATVTPKLNGVAGPAFQVIKDSLTLGLNALTLTDVTKNAAYGVEIESLVLEINAPAA", "soluble on expression in E. coli": "soluble"}
{"sequence": "GPGSMSKGFEVYPLTGSHKEVVINEALIRSAISFKPSLTTEDDRVRVVGNQEKALCEEKVQKEAAGIALEDVQTLLLSFRGIKRLENLSCLRSLTKLHLDNNRIRCIEHLESLVHLEWLDLSYNAIEVIDGLQALQHLNCLSLYANKITAVDGLTCLPELNTLSLGRNPLENIDETVHYLHHLPRLQVLTLKECPLAGLPNYRSRVLAFVRGLKFFDGHLVRHDEAAKAREAFRENLLTVDEEDEARAAAAKLQADQEIIASSYQQYNCPNEVMLFDELLHLDPEGRHMEAILRSEAVFSVAKEPLDRYQTEFNEQLRQLTAAMKDIRERRDADDAAYREAVTYTLRHSAAASLASMQRFEALAKGHIVKGVAQPVPGPAKRLPSQATRSLHAALDKLKKDLLEEEAHQYDVLEVLHNNTIAKWKSHSVEVVLQSSFEALLRLETDFQATVRHIFDAVFEERRKGDNAERAFRYVGQDDAMLAFLDNKEEYQRTVNEWYELRRKRVEELEMHHLKAEETLLNARANSILAAEQDRHRRRVHEVCQYVKEMSSRIDGCDH", "soluble on expression in E. coli": "not soluble"}
{"sequence": "MRNPIMVTTEVAGEPPGQGRKWAAHGTMAAPRVHTDYHPGGGSACSSVKVRSHVGHTGVFFFVDQDPLAVSLTSQSLIPPLIKPGLLKAWGFLLLCAQPSANGHSLCCLLYTDLVSSHELSPFRALCLGPSDAPSACASCNCLASTYYLLEHHHHHH", "soluble on expression in E. coli": "not soluble"}
{"sequence": "MGSDKIHHHHHHMAKTNPGRFFEDYTVGQTLHHAVPRTVTNGERALYHALYPARHALYSSDAFAQSCGLPGSPIDDLAAFHVVFGKTVPDVSLNAVANLGYAEGRWLKPVYAGDTLRSVSEVIGLKQNSNGKTGVVYVRTRGLNQRDETVMEYVRWVMVRKRDLDAPAPEIVVPELKKALAPNDLVVPEGLDFTAYDFALAGEPHRWGDYAVGETIDHVDGVTVEEAEHMLATRLWQNTAKVHFDLTFRPDGRLIYGGHVISMARALSFNGLANAQIIVGLNGGAHANPCFAGDTIKAWTEVLDKAETAAPGVGALRLRLVATKGGAPFALHGEDGKYLPEVLLDLDYWVLMPK", "soluble on expression in E. coli": "not soluble"}
{"sequence": "KMKNWIKTVCFLLWTCVMCTACIDDDVEEGTVDLQTGESIPVFSVVMDDGQIITSETLKGEVSLIVFFHTGCPDCRKELPVLQKIYTDYGRRIRMVCISREESSAEIVRYWDENHLTLPYSAQENRTVYYQFAKSGIPRVYVIDKELVIRSVFTDNPLASYEDLAEAITASL", "soluble on expression in E. coli": "not soluble"}
{"sequence": "LEKMQAHGLDKVEYKVCTNPGMEPDSLNKIASGGELSRISLAIQMITAQKGSTPTLLFDEVDVGIGGSTAALVGKMLRKLGERLQVFCVTHQPQVAASAHHHFLVTKHSNNNQTFTHISLLKASDKIAEIARMMGGLTITEQTLSHAKELISLSNE", "soluble on expression in E. coli": "not soluble"}
{"sequence": "QGKTTVTAALARLHARQGRRVRVFKCGPDFLDPMILARASGAPVYQLDLWMVGEAEARRLLARAAGEADLILIEGVMGLFDGNPSAADLARRFGVPVLGVINGAAMAQTFGALAYGLAHFQPDLPFSGVLGNRVGSQRHSDILRDCLPPGMRWFGGLPRSAEFELPSRHLGLVQAEELADLDARLDAAADALRASAETDLPEPVTFEVPAPAPLQRSLEGVRIGVARDASFAFLYQANLDLLRELGAELAFFSPLQDQALPAVDSLYLPGGYPELHLGRLQGNRAMAEAIRAHHAAGKPLLAECGGMLYLLDCLEDADGERGELLGLLPGRARLQKRLTALALQEVELPEGRLRGHTFHHSTLDCAVEPLARGVCPNGRNTAEAVFRLGRLTASYIHFYLPSNPQAAAALLAPARDA", "soluble on expression in E. coli": "not soluble"}
{"sequence": "MKKTIISTLVIGLVSGCSNTNLLKDNLASEQSVINLSKSSNEAKSRNIEFLSGAYLSERKVPKHDIKFSGKYVEFESKSPIELIDVLDGLSKQYNIQYVFSDELEDENSEENKKSSGSSSAKKIKYSGPLAGFFDYLSSAYNMHFEFGHNNLVKAYHYKNQVFNLQQYFDDNKFSSSMQIGGTSGTSSGLKGTADTAIESNSWEKIDEFLSASLGETGKFTIFEDYSLVTVKARPDKFLLLHTFFDKLINESKMQIAVDYRVVSLSEERLNQLAAKFGIENAGKYSITSDMVDAISLSQVGGGLGASYRSASARLDAVVNELSQEVMHEGHFIGIPNRVMPLNVTTNSKYISSIETTKDTNTDEETRTVKVSDLVTGFSMMVMPKILDDGRIQISSGFSRKQLVSIGTAQGITLPTVDENESMNTVTMNPGEVRLAMLFKDNYIQNSNGVQLLGGGTENKKSARYIAVLVGASSYKTNDLASNRVNIYD", "soluble on expression in E. coli": "not soluble"}
